Results taken from US20230025129A1 (KYMAB, published 2023).
Changes are numbered by the printed parent chain. In names and notes the source's numbering stands. Values belong to the binder of their own block, whether it stands above or below them.

Legend:
[1] = target: T1, mouse matriptase-2 ECD protein his tag (mouse, UniProt Q9DBI0 80-811); experiment: HTRF competition with 647-labelled aprotinin for mouse MTP-2 protein
T1 construct: aa 80-811 of Q9DBI0 with C-terminal linker and His tag; also called mouse MTP-2 ECD; moMTP-2
T1 sequence: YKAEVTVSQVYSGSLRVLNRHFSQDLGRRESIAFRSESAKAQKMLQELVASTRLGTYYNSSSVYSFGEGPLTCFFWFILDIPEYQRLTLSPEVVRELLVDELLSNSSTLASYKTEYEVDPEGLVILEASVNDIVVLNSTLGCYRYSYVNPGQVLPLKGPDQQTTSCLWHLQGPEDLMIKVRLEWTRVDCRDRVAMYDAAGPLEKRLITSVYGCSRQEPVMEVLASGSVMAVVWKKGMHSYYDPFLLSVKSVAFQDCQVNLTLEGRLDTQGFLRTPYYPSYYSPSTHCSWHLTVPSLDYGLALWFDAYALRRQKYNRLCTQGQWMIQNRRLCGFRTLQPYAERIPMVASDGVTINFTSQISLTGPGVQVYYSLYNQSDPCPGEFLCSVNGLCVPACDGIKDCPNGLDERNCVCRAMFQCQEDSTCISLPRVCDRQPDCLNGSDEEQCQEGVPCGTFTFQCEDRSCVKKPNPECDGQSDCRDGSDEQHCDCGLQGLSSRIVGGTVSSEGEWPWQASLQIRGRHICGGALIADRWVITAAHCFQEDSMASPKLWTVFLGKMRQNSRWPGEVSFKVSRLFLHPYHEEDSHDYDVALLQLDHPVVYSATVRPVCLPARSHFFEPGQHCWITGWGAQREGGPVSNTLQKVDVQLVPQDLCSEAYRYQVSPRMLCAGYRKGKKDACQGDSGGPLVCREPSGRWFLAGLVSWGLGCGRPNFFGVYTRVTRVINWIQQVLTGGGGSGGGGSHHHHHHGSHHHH
Excerpt: Aprotinin is a pan serine protease inhibitor and is known to occupy the active site of serine proteases. A HTRF competition assay against labelled aprotinin confirmed that NORI-003, NORI-006, NORI-008 and NORI-011 were binding at or near this same site and competed with aprotinin for binding to human MTP-2 protein. […] This was confirmed by their lack of competition of aprotinin against moMTP-2 while IC50 values in the enzymatic assay were similar to those of NORI-011. […] FIG. 8. Table L.
Antibodies were titrated into HTRF buffer (DPBS (Gibco—14190144) with 0.1% BSA (Sigma—A7906) and potassium fluoride 0.53M (Sigma—60240-250 G)) at 4× conc with a starting concentration of 200 nM. 5 μL/w of antibodies were added to 384-well white plates (Greiner—784904). Purified proteins of huMTP-2 and moMTP-2 were diluted into HTRF buffer (huMTP-2=40 nM and moMTP-2=240 nM) 4× final conc and plate 5 μL/w. Anti-MTP-2 mAb (NORI-037) in molgG1 backbone was then diluted to 1.2 nM 4× final conc with DELFIA Eu-N1 Rabbit Anti-Mouse-IgG antibody (AD0207) at a 1:1000 dilution 4× final conc in HTRF buffer. Finally, dilute 647-labelled Aprotinin (Sigma—A3428) in HTRF buffer to 20 nM 4× final conc and plate 5 μL/w. Incubate plates for 3 hours or more at RT in the dark. Read plate using HTRF 100 flashes protocol on the EnVision plate reader at 1H 2H and 3H. (Ex: 340 nm Em1: 620 nm Em2: 665 nm).

[2] = target: T1, mouse matriptase-2 ECD protein his tag; experiment: SPR (Biacore 8K), huIgG4PE captured on anti-human Fc, MTP-2 ECD as analyte, 1:1 fit; true KD could be < the value shown
Procedure: (§1) Off-rate screening was performed by surface plasmon resonance (SPR), using a Biacore 8K system (GE Healthcare). Anti-human Fc mix (˜1000 RU) were immobilised in both active and reference channels in HBS-P+ buffer (GE BR100671) pH 7.4. Anti-MTP-2 hulgG4PE antibodies were then captured for 60 sec at 10 μl/min at 1 μg/ml concentration (approximatively 35 and 50 RU were captured) only on the active channel. MTP-2 ECD protein analytes were then injected (at 100, 25, 6.25, 1.56 and 0 nM concentrations) for 120 sec (association time) at 30 μl/min and dissociation monitored for 600 sec. Multiple cycle kinetics mode was used with all 8 channels being used. Reference and background were subtracted from the sensorgrams for each antibody and data was fitted using a 1:1 interaction model in the Biacore evaluation software. Rmax, ka, kd globally fitted, RI=0.

[3] = target: T2, human matriptase-2 mask ECD protein his tag (human, UniProt Q8IU80 78-576); experiment: SPR, antibody captured, headless ECD as analyte
T2 construct: MTP-2 ECD without the serine protease domain, with C-terminal linker and His tag; also called headless huMTP-2 ECD 78-576 aa; headless human MTP-2 ECD
T2 sequence: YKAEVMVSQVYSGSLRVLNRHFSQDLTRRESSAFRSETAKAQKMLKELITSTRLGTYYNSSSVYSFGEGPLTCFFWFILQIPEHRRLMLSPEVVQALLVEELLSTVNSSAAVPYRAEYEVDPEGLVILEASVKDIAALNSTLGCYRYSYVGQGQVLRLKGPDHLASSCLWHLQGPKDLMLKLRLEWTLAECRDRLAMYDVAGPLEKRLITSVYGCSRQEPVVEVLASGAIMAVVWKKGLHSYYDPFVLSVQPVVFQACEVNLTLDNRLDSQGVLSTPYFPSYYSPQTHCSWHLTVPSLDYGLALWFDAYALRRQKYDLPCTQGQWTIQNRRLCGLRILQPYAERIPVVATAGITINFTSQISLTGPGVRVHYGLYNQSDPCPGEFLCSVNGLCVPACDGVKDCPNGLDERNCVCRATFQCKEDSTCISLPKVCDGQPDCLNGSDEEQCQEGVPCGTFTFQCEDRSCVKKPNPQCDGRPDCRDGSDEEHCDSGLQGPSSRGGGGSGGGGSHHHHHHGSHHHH
Procedure: as §1
Binding was also assessed using the above SPR method with “headless” huMTP-2 ECD 78-576 aa instead of the full ECD. Headless ECD corresponds to the MTP-2 ECD without the serine protease domain.

[4] = target: T1, mouse matriptase-2 ECD protein his tag; experiment: SPR (Biacore 8K), huIgG4PE captured on anti-human Fc, MTP-2 ECD as analyte, 1:1 fit; off-rate too slow to be determined
Procedure: as §1

IC50 [1]: 120 nM
B1: NORI-011 (antibody, human IgG4 S228P, lambda)
heavy: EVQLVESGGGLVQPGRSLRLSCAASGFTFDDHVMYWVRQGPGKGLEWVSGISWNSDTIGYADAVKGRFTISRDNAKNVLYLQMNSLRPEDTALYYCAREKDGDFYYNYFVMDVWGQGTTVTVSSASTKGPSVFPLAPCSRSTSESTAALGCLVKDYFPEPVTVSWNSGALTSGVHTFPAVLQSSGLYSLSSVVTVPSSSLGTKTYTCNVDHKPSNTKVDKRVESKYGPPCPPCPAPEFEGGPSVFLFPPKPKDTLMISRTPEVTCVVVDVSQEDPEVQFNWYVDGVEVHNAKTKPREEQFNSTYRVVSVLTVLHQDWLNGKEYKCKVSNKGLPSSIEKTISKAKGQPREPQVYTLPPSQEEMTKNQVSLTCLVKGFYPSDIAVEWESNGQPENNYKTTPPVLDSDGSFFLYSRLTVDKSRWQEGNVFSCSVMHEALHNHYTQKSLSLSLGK
light: QSALTQPPSASGSPGQSVTISCTGTSSDVGFYNFVSWYQQHPDKAPKVMIYEVSKRPSGVPDRFSGSKSGNTASLTVSGLQAEDEADYYCSSYAGSNKVVFGGGTKLTVLGQPKAAPSVTLFPPSSEELQANKATLVCLISDFYPGAVTVAWKADSSPVKAGVETTTPSKQSNNKYAASSYLSLTPEQWKSHRSYSCQVTHEGSTVEKTVAPTECS
notes: human IgG4PE, lambda; NORI-010 with a P124S mutation in the VH domain

Kd [2]: ≤ 0.949 nM | koff [4]: ≤ 1e-05 s⁻¹
B2: NORI-013 (antibody, human IgG4 S228P, lambda, V domains shown)
VH: EVQLVESGGGLIQAGRSLRLSCAASGFTFDEHVIYWVRQIPGKGLEWISSISWKSDIIAYADSVKGRFTISRDNAKNALYLQMNSLRAEDTALYYCAREKDGDFYYYYFAMDVWGQGTTVTVSS
VL: QSALTQPPSASGSPGQSVTLSCTGTSSDVGYYNYVSWYLQHPGKAPKLMIYEVSKRPSGVPDRFSGSKSANTASLTVSGLQAEDEADYYCSSYAGSNKVVFGGGTKVTVLG
notes: human IgG4PE, lambda
binding result [3]: no binding (tested: analyte up to 100 nM)

Kd [2]: ≤ 0.83 nM | koff [4]: ≤ 1e-05 s⁻¹
B3: NORI-014 (antibody, human IgG4 S228P, lambda, V domains shown)
VH: B2 VH with I34M, S52T
VL: B2 VL
notes: human IgG4PE, lambda
binding result [3]: no binding (tested: analyte up to 100 nM)

IC50 [1]: 1.42 nM
B4: NORI-008 (antibody, human IgG4 S228P, kappa, V domains shown)
VH: QVQLQESGPGLVKPSETLSLTCSVSGGSVSSGRYYWTWIRQPPGKGLEWIGYISNSGNTNYNPSLKSRVTISLDTSKKQFSLSLSAVTAADTAVYYCARGFIYDYWFDPWGQGSLVTVSS
VL: DSQMTQSPSSLSASVGDRVTITCQASQDIDNYLNWYQQRPGKAPKLLIYDASKLETGVPSRFSGSGSGTDFTFTISSLQPEDFATYYCQQYGNLPITFGQGTRLDIKR
notes: human IgG4PE, kappa, in the in vitro assays; a mouse IgG1 format was used in one in vivo study only; also called NORI-008 hulgG4PE; NORI-008 IgG
